Assay results as given in the supplement of paper PMC10567573.

B1: ZNF263 (parent)
chain: HLTRHQRTHTGEKPYKCTLCGENF

Variants of: B1
Assay: protein stability index of a GFP-peptide fusion (GPS, HEK-293T) (PSI 1-6); higher = more stable
Conditions: c terminus: a fixed tail appended
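Note: lentivirally expressed fusions sorted by FACS into six bins by GFP to DsRed ratio, PSI derived from sequencing read proportions per bin multiplied by bin number.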

For HLTRHQRTHTGECPYKCTLCGENF [K13C], which protein stability index is on record?
Its protein stability index is 4.22.

Which protein stability index does the source give for HLTRHQRTHTGEHPYKCTLCGENF [K13H] here?
Its protein stability index is 2.9.

With HLTRHQRTHTGEFPYKCTLCGENF [K13F] as the variant, how does the protein stability index read?
Its protein stability index is 2.65.

With HLTRHQRTHTGEEPYKCTLCGENF [K13E] as the variant, how does the protein stability index read?
Its protein stability index is 3.64.

Which protein stability index does the source give for HLTRHQRTHTGERPYKCTLCGENF [K13R] here?
The protein stability index was 2.98.

With HLTRHQRTHTGEIPYKCTLCGENF [K13I] as the variant, how does the protein stability index read?
The protein stability index was 2.13.

For HLTRHQRTHTGEVPYKCTLCGENF [K13V], which protein stability index is on record?
Its protein stability index is 2.69.

Which protein stability index does the source give for HLTRHQRTHTGEAPYKCTLCGENF [K13A] here?
Its protein stability index is 3.28.

With HLTRHQRTHTGEGPYKCTLCGENF [K13G] as the variant, how does the protein stability index read?
Its protein stability index is 2.92.

Which protein stability index does the source give for HLTRHQRTHTGEYPYKCTLCGENF [K13Y] here?
The protein stability index was 2.74.

Which protein stability index does the source give for HLTRHQRTHTGESPYKCTLCGENF [K13S] here?
The protein stability index was 3.24.

Which protein stability index does the source give for HLTRHQRTHTGELPYKCTLCGENF [K13L] here?
The protein stability index was 2.03.

For HLTRHQRTHTGETPYKCTLCGENF [K13T], which protein stability index is on record?
The protein stability index was 3.54.

Which protein stability index does the source give for HLTRHQRTHTGEMPYKCTLCGENF [K13M] here?
The protein stability index was 2.56.

Which protein stability index does the source give for HLTRHQRTHTGEWPYKCTLCGENF [K13W] here?
The protein stability index was 2.5.

With HLTRHQRTHTGENPYKCTLCGENF [K13N] as the variant, how does the protein stability index read?
The protein stability index was 3.16.

With HLTRHQRTHTGEDPYKCTLCGENF [K13D] as the variant, how does the protein stability index read?
Its protein stability index is 2.82.

For HLTRHQRTHTGEPPYKCTLCGENF [K13P], which protein stability index is on record?
Its protein stability index is 2.88.

For HLTRHQRTHTGEQPYKCTLCGENF [K13Q], which protein stability index is on record?
Its protein stability index is 3.6.

For HLTRHQRTHTGEKPFKCTLCGENF [Y15F], which protein stability index is on record?
Its protein stability index is 3.31.

Which protein stability index does the source give for HLTRHQRTHTGEKPAKCTLCGENF [Y15A] here?
The protein stability index was 3.23.

For HLTRHQRTHTGEKPEKCTLCGENF [Y15E], which protein stability index is on record?
Its protein stability index is 3.69.

With HLTRHQRTHTGEKPGKCTLCGENF [Y15G] as the variant, how does the protein stability index read?
Its protein stability index is 3.29.

For HLTRHQRTHTGEKPDKCTLCGENF [Y15D], which protein stability index is on record?
Its protein stability index is 4.21.

With HLTRHQRTHTGEKPCKCTLCGENF [Y15C] as the variant, how does the protein stability index read?
Its protein stability index is 4.52.

With HLTRHQRTHIGEKPYKCTLCGENF [T10I] as the variant, how does the protein stability index read?
The protein stability index was 3.13.

Which protein stability index does the source give for HLTRHQRTHQGEKPYKCTLCGENF [T10Q] here?
The protein stability index was 3.44.

Which protein stability index does the source give for HLTRHQRTHWGEKPYKCTLCGENF [T10W] here?
The protein stability index was 2.82.

With HLTRHQRTHVGEKPYKCTLCGENF [T10V] as the variant, how does the protein stability index read?
The protein stability index was 2.45.

Which protein stability index does the source give for HLTRHQRTHLGEKPYKCTLCGENF [T10L] here?
The protein stability index was 1.98.

With HLTRHQRTHSGEKPYKCTLCGENF [T10S] as the variant, how does the protein stability index read?
The protein stability index was 3.12.

Which protein stability index does the source give for HLTRHQRTHYGEKPYKCTLCGENF [T10Y] here?
Its protein stability index is 2.58.

Which protein stability index does the source give for HLTRHQRTHPGEKPYKCTLCGENF [T10P] here?
The protein stability index was 2.45.

Which protein stability index does the source give for HLTRHQRTHMGEKPYKCTLCGENF [T10M] here?
The protein stability index was 2.48.

With HLTRHQRTHRGEKPYKCTLCGENF [T10R] as the variant, how does the protein stability index read?
The protein stability index was 3.36.

Which protein stability index does the source give for HLTRHQRTHNGEKPYKCTLCGENF [T10N] here?
Its protein stability index is 2.44.

Which protein stability index does the source give for HLTRHQRTHKGEKPYKCTLCGENF [T10K] here?
The protein stability index was 3.12.

For HLTRHQRTHTGCKPYKCTLCGENF [E12C], which protein stability index is on record?
Its protein stability index is 2.41.

For HLTRHQRTHTGDKPYKCTLCGENF [E12D], which protein stability index is on record?
The protein stability index was 2.68.

Which protein stability index does the source give for HLTRHQRTHTGKKPYKCTLCGENF [E12K] here?
The protein stability index was 3.2.

Which protein stability index does the source give for HLTRHQRTHTGWKPYKCTLCGENF [E12W] here?
The protein stability index was 1.87.

With HLTRHQRTHTGIKPYKCTLCGENF [E12I] as the variant, how does the protein stability index read?
Its protein stability index is 2.11.

With HLTRHQRTHTGAKPYKCTLCGENF [E12A] as the variant, how does the protein stability index read?
Its protein stability index is 3.53.

With HLTRHQRTHTGQKPYKCTLCGENF [E12Q] as the variant, how does the protein stability index read?
The protein stability index was 2.74.

For HLTRHQRTHTGPKPYKCTLCGENF [E12P], which protein stability index is on record?
The protein stability index was 2.8.

Which protein stability index does the source give for HLTRHQRTHTGFKPYKCTLCGENF [E12F] here?
Its protein stability index is 2.47.

For HLTRHQRTHTGRKPYKCTLCGENF [E12R], which protein stability index is on record?
The protein stability index was 2.55.

For HLTRHQRTHTGGKPYKCTLCGENF [E12G], which protein stability index is on record?
The protein stability index was 2.23.

With HLTRHQRTHTGMKPYKCTLCGENF [E12M] as the variant, how does the protein stability index read?
The protein stability index was 2.71.

Which protein stability index does the source give for HLTRHQRTHTGLKPYKCTLCGENF [E12L] here?
The protein stability index was 2.29.

With HLTRHQRTHTGTKPYKCTLCGENF [E12T] as the variant, how does the protein stability index read?
Its protein stability index is 2.59.

With HLTRHQRTHTGHKPYKCTLCGENF [E12H] as the variant, how does the protein stability index read?
The protein stability index was 3.78.

Which protein stability index does the source give for HLTRHQRTHTGNKPYKCTLCGENF [E12N] here?
Its protein stability index is 2.7.

Which protein stability index does the source give for HLTRHQRTHTGVKPYKCTLCGENF [E12V] here?
The protein stability index was 3.08.

Which protein stability index does the source give for HLTRHQRTHTGYKPYKCTLCGENF [E12Y] here?
Its protein stability index is 2.84.

Which protein stability index does the source give for HLTRHQRTHTGSKPYKCTLCGENF [E12S] here?
Its protein stability index is 3.19.

With HLTRHQRTHTGEKHYKCTLCGENF [P14H] as the variant, how does the protein stability index read?
The protein stability index was 3.01.

For HLTRHQRTHTGEKVYKCTLCGENF [P14V], which protein stability index is on record?
The protein stability index was 2.77.

Which protein stability index does the source give for HLTRHQRTHTGEKLYKCTLCGENF [P14L] here?
The protein stability index was 3.14.

Which protein stability index does the source give for HLTRHQRTHTGEKYYKCTLCGENF [P14Y] here?
The protein stability index was 3.04.

For HLTRHQRTHTGEKKYKCTLCGENF [P14K], which protein stability index is on record?
Its protein stability index is 3.31.

With HLTRHQRTHTGEKGYKCTLCGENF [P14G] as the variant, how does the protein stability index read?
The protein stability index was 3.58.

With HLTRHQRTHTGEKIYKCTLCGENF [P14I] as the variant, how does the protein stability index read?
Its protein stability index is 2.9.

Which protein stability index does the source give for HLTRHQRTHTGEKMYKCTLCGENF [P14M] here?
The protein stability index was 2.63.

Which protein stability index does the source give for HLTRHQRTHTGEKFYKCTLCGENF [P14F] here?
The protein stability index was 2.78.

For HLTRHQRTHTGEKDYKCTLCGENF [P14D], which protein stability index is on record?
The protein stability index was 3.65.

With HLTRHQRTHTGEKSYKCTLCGENF [P14S] as the variant, how does the protein stability index read?
The protein stability index was 2.79.

With HLTRHQRTHTGEKCYKCTLCGENF [P14C] as the variant, how does the protein stability index read?
The protein stability index was 2.52.

With HLTRHQRTHTGEKQYKCTLCGENF [P14Q] as the variant, how does the protein stability index read?
Its protein stability index is 3.14.

For HLTRHQRTHTGEKWYKCTLCGENF [P14W], which protein stability index is on record?
Its protein stability index is 3.26.

With HLTRHQRTHTGEKAYKCTLCGENF [P14A] as the variant, how does the protein stability index read?
Its protein stability index is 2.79.

Which protein stability index does the source give for HLTRHQRTHTGEKEYKCTLCGENF [P14E] here?
Its protein stability index is 3.21.

With HLTRHQRTHTGEKNYKCTLCGENF [P14N] as the variant, how does the protein stability index read?
Its protein stability index is 2.92.

For HLTRHQRTHTGEKTYKCTLCGENF [P14T], which protein stability index is on record?
The protein stability index was 2.88.

For HLTRHQRTHTGEKRYKCTLCGENF [P14R], which protein stability index is on record?
Its protein stability index is 2.9.

With HLTRHQRTHTREKPYKCTLCGENF [G11R] as the variant, how does the protein stability index read?
Its protein stability index is 2.94.

Which protein stability index does the source give for HLTRHQRTHTFEKPYKCTLCGENF [G11F] here?
Its protein stability index is 2.72.

With HLTRHQRTHTQEKPYKCTLCGENF [G11Q] as the variant, how does the protein stability index read?
The protein stability index was 3.55.

With HLTRHQRTHTHEKPYKCTLCGENF [G11H] as the variant, how does the protein stability index read?
The protein stability index was 2.83.

Which protein stability index does the source give for HLTRHQRTHTEEKPYKCTLCGENF [G11E] here?
The protein stability index was 3.92.

With HLTRHQRTHTTEKPYKCTLCGENF [G11T] as the variant, how does the protein stability index read?
Its protein stability index is 3.01.

Which protein stability index does the source give for HLTRHQRTHTMEKPYKCTLCGENF [G11M] here?
The protein stability index was 2.84.

For HLTRHQRTHTKEKPYKCTLCGENF [G11K], which protein stability index is on record?
Its protein stability index is 3.06.

For HLTRHQRTHTNEKPYKCTLCGENF [G11N], which protein stability index is on record?
The protein stability index was 2.98.

For HLTRHQRTHTDEKPYKCTLCGENF [G11D], which protein stability index is on record?
The protein stability index was 3.25.

For HLTRHQRTHTSEKPYKCTLCGENF [G11S], which protein stability index is on record?
The protein stability index was 3.45.

For HLTRHQRTHTAEKPYKCTLCGENF [G11A], which protein stability index is on record?
The protein stability index was 3.15.

With HLTRHQRTHTIEKPYKCTLCGENF [G11I] as the variant, how does the protein stability index read?
The protein stability index was 2.46.

Which protein stability index does the source give for HLTRHQRTHTYEKPYKCTLCGENF [G11Y] here?
The protein stability index was 2.17.

Which protein stability index does the source give for HLTRHQRTHTVEKPYKCTLCGENF [G11V] here?
The protein stability index was 2.38.

Which protein stability index does the source give for HLTRHQRTHTCEKPYKCTLCGENF [G11C] here?
Its protein stability index is 4.07.

For HLTRHQRTHTWEKPYKCTLCGENF [G11W], which protein stability index is on record?
The protein stability index was 2.07.

Which protein stability index does the source give for HLTRHQRTHTPEKPYKCTLCGENF [G11P] here?
Its protein stability index is 2.86.

Which protein stability index does the source give for HLTRHQRTHTLEKPYKCTLCGENF [G11L] here?
Its protein stability index is 2.99.
